# Measured values reported in paper PMC10786891, “Massively parallel profiling of RNA-targeting CRISPR-Cas13d”.
# T1: EsCas13d, nuclease-dead (Eubacterium siraeum, UniProt B0MS50, R295A;H300A;R849A;H854A)
# T1 sequence: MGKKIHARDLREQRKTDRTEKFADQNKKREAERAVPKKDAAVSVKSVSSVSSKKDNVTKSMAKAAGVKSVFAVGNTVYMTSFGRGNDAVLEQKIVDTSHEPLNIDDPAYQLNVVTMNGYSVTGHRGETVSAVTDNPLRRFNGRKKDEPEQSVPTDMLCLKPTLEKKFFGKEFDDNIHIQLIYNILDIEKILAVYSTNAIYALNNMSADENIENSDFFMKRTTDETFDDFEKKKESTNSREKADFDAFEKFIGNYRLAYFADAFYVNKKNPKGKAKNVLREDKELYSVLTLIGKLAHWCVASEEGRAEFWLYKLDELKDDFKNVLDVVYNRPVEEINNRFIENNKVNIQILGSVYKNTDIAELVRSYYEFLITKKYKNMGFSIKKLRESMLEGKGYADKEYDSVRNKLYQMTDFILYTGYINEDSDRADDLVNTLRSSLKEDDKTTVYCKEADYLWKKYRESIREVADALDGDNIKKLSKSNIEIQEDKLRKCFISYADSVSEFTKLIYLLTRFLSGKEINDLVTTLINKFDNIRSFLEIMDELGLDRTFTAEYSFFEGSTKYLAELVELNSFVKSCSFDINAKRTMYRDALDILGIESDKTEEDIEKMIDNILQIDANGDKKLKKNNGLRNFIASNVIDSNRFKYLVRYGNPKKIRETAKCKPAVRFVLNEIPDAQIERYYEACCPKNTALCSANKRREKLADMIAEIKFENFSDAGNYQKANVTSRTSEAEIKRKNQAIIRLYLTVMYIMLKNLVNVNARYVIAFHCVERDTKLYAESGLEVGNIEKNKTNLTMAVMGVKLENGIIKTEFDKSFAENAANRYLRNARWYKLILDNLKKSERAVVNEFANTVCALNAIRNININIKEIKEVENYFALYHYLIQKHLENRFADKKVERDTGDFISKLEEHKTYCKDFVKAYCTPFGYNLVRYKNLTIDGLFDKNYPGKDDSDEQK
# Molecular target: T1, EsCas13d, nuclease-dead
# Experiment: crRNA (strand 1, pre-loaded); Mg2+; 40 mM Tris-HCl pH 7.5, 150 mM NaCl, 6 mM MgCl2, 1 mM DTT, 0.1% Tween-20, 0.2 mg/ml BSA; 25 C; 10 min per concentration, then washed
# Conditions: tags: His6-TwinStrep-SUMO cleaved; N-terminal SNAP kept (SNAP-Surface 488); label: 3' end held by stalled T7 RNA polymerase
row,Binder,Kd
1,target 1 MT 5'PFS GUU 3'PFS UUU (mixed) RNA 1: CACCCGUGCAAAAAUGCAGGGGUCUAAAACUGAGCGGAUAACCUCUCUAUGG RNA 2: GGGAAUGGAUCCACAUCUACGAAUUCGUUCCAUAGAGAGGUUAUCCGCUCAUUUAGAUCGGAAGAGCACACGU,8.95 ± 0.95 nM
2,target 1 MT 5'PFS UCA 3'PFS ACU (mixed) RNA 1: CACCCGUGCAAAAAUGCAGGGGUCUAAAACUGAGCGGAUAACCUCUCUAUGG RNA 2: GGGAAUGGAUCCACAUCUACGAAUUCUCACCAUAGAGAGGUUAUCCGCUCAACUAGAUCGGAAGAGCACACGU,14 ± 4.5 nM
3,target 1 MT 5'PFS UUC 3'PFS CCU (mixed) RNA 1: CACCCGUGCAAAAAUGCAGGGGUCUAAAACUGAGCGGAUAACCUCUCUAUGG RNA 2: GGGAAUGGAUCCACAUCUACGAAUUCUUCCCAUAGAGAGGUUAUCCGCUCACCUAGAUCGGAAGAGCACACGU,66 ± 27 nM
4,target 1 MT 5'PFS GAG 3'PFS UAA (mixed) RNA 1: CACCCGUGCAAAAAUGCAGGGGUCUAAAACUGAGCGGAUAACCUCUCUAUGG RNA 2: GGGAAUGGAUCCACAUCUACGAAUUCGAGCCAUAGAGAGGUUAUCCGCUCAUAAAGAUCGGAAGAGCACACGU,28.5 ± 8 nM
5,"target 1 C2U,G12C (mixed) RNA 1: CACCCGUGCAAAAAUGCAGGGGUCUAAAACUGAGCGGAUAACCUCUCUAUGG RNA 2: GGGAAUGGAUCCACAUCUACGAAUUCGUACCAUAGAGAGCUUAUCCGCUUACCGAGAUCGGAAGAGCACACGU",7.1 ± 0.5 nM
6,target 1 MT 5'PFS GAG 3'PFS UAC (mixed) RNA 1: CACCCGUGCAAAAAUGCAGGGGUCUAAAACUGAGCGGAUAACCUCUCUAUGG RNA 2: GGGAAUGGAUCCACAUCUACGAAUUCGAGCCAUAGAGAGGUUAUCCGCUCAUACAGAUCGGAAGAGCACACGU,~60 nM
7,target 1 MT 5'PFS GAG 3'PFS UAG (mixed) RNA 1: CACCCGUGCAAAAAUGCAGGGGUCUAAAACUGAGCGGAUAACCUCUCUAUGG RNA 2: GGGAAUGGAUCCACAUCUACGAAUUCGAGCCAUAGAGAGGUUAUCCGCUCAUAGAGAUCGGAAGAGCACACGU,46.5 ± 15.5 nM
8,target 1 MT 5'PFS GAA 3'PFS CCU (mixed) RNA 1: CACCCGUGCAAAAAUGCAGGGGUCUAAAACUGAGCGGAUAACCUCUCUAUGG RNA 2: GGGAAUGGAUCCACAUCUACGAAUUCGAACCAUAGAGAGGUUAUCCGCUCACCUAGAUCGGAAGAGCACACGU,~21 nM
9,target 1 MT 5'PFS GAA 3'PFS CCG (mixed) RNA 1: CACCCGUGCAAAAAUGCAGGGGUCUAAAACUGAGCGGAUAACCUCUCUAUGG RNA 2: GGGAAUGGAUCCACAUCUACGAAUUCGAACCAUAGAGAGGUUAUCCGCUCACCGAGAUCGGAAGAGCACACGU,21 ± 5.5 nM
10,target 1 MT 5'PFS AGG 3'PFS CGG (mixed) RNA 1: CACCCGUGCAAAAAUGCAGGGGUCUAAAACUGAGCGGAUAACCUCUCUAUGG RNA 2: GGGAAUGGAUCCACAUCUACGAAUUCAGGCCAUAGAGAGGUUAUCCGCUCACGGAGAUCGGAAGAGCACACGU,41 ± 11.5 nM
11,target 1 MT 5'PFS CUG 3'PFS AAG (mixed) RNA 1: CACCCGUGCAAAAAUGCAGGGGUCUAAAACUGAGCGGAUAACCUCUCUAUGG RNA 2: GGGAAUGGAUCCACAUCUACGAAUUCCUGCCAUAGAGAGGUUAUCCGCUCAAAGAGAUCGGAAGAGCACACGU,12.4 ± 3.4 nM
12,target 1 MT 5'PFS AGG 3'PFS CGC (mixed) RNA 1: CACCCGUGCAAAAAUGCAGGGGUCUAAAACUGAGCGGAUAACCUCUCUAUGG RNA 2: GGGAAUGGAUCCACAUCUACGAAUUCAGGCCAUAGAGAGGUUAUCCGCUCACGCAGAUCGGAAGAGCACACGU,44 ± 19 nM
13,target 1 MT 5'PFS AGG 3'PFS CGU (mixed) RNA 1: CACCCGUGCAAAAAUGCAGGGGUCUAAAACUGAGCGGAUAACCUCUCUAUGG RNA 2: GGGAAUGGAUCCACAUCUACGAAUUCAGGCCAUAGAGAGGUUAUCCGCUCACGUAGAUCGGAAGAGCACACGU,~90 nM
